The text below walks through data of patent publication US5578288, “Metal-binding targeted polypeptide constructs” (Cytogen Corporation, dated 1996).

The target of assay [1] is receptor on murine NIH-3T3 fibroblast cells (ATCC No. CCL92) to which 125I-GRP binds (murine, UniProt P21729). Nature of the assay: competition with 0.45 pM 125I-GRP on NIH-3T3 cells, filter assay. As for the experimental part: Each tube was charged with 4 ×10^4 cells. […] Three control tubes with no cells or competitor were prepared for measurement of total counts added.
The samples were incubated for 30 min at RT. The contents of each tube were transferred into the wells of a 96-well filter bottom plate (Millipore Multiscreen, Arlington Heights, Mass.) and filtered under moderate vacuum (water aspirator). Each filter was washed three times by filling each well with ice cold PBS, Ph 7.4, 0.1% BSA. The plate was allowed to dry. Dried filters were placed into gamma-counter tubes (12×75 mm glass). The radioactivity on each filter and in the control tubes was counted using a LKB gamma counter. The bound/total added for each assay tube was calculated.

The target of assay [2] is receptor on murine NIH-3T3 fibroblast cells (ATCC No. CCL92) to which 125I-GRP binds (murine) (UniProt P21729). Nature of the assay: competition with […] 125I-GRP on NIH-3T3 cells; inhibitor at 10 nM.
Sequence of receptor on murine NIH-3T3 fibroblast cells (ATCC No. CCL92) to which 125I-GRP binds (murine) (P21729 whole entry): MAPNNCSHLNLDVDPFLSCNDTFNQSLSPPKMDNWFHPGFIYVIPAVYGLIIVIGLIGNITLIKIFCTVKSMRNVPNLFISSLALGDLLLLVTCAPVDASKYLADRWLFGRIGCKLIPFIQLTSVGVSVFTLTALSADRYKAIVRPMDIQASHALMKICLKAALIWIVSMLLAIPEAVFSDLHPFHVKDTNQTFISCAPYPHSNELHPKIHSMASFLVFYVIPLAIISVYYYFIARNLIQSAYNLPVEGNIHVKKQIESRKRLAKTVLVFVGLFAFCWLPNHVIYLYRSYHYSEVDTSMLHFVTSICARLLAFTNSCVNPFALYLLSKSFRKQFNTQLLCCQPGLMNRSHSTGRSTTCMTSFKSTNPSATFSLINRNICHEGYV
The target is the same in assay [3]. Nature of the assay: competition with […] 125I-GRP on NIH-3T3 cells; inhibitor at 100 nM.
Assay [4] has the same target. Put plainly: competition with […] 125I-GRP on NIH-3T3 cells; inhibitor at 1 nM.

Where no end group is shown, it is not given here.

B1: Benzoic acid bis-thiourea derived from Neuromedin-C, compound 3 (peptide)
peptide: GNHWAVGHLM-NH2
modifications: not fully specified (N-terminus); also: dimer: two chains on one 3,5-disubstituted benzoic acid via N-terminal thioureas
In turn, B1 had a 50% inhibitory concentration (IC50) in assay [1] of 10.6 nM.

In assay [2], H-GNHWAVGHLM-NH2 [Neuromedin C (NMc, H-Gly-Asn-His-Trp-Ala-Val-Gly-His-Leu-Met-NH2)] showed a % BOUND (of I-125-GRP) of 1.7%, a % INHIBITION of 71% and an AVG CPM BOUND (of I-125-GRP) of 1130 CPM. In assay [3], this molecule came in with a % BOUND (of I-125-GRP) of 1.4%, a % INHIBITION of 76% and an AVG CPM BOUND (of I-125-GRP) of 940 CPM. In assay [4], this molecule displayed a % BOUND (of I-125-GRP) of 2.2%, a % INHIBITION of 63% and an AVG CPM BOUND (of I-125-GRP) of 1420 CPM.

B2: Benzoic acid bis-thiosemicarbazide derived from N-acetyl-Neuromedin C-hydrazide, compound 6 (peptide)
peptide: Ac-GNHWAVGHLM
modifications: not fully specified (C-terminus); also: dimer: two chains on one 3,5-disubstituted benzoic acid via C-terminal thiosemicarbazides
B2 came in with a concentration for half-maximal inhibition (IC50) in assay [1] of 43.3 nM. This counts as double-digit nanomolar.

The IC50 is the concentration that inhibits the measured activity by half. Low readings indicate greater potency, high ones weaker potency.
